The values below come from article PMC3143253.

One test concerns the target calmodulin (UniProt P0DP23). Put plainly: ITC.
In test [1] the target is IAEDANS-labeled CaM-K75C (UniProt P0DP23). Briefly: other fluorescence titration.
Test [2] shares this target. Put plainly: other fluorescence titration. This is another data set of the same source.
Test [3] has as its target TMR-conjugated CLS-S329C, reconstituted in liposomes (human). Briefly: other fluorescence titration.

Read-outs that look alike come from different tables or passages of the source.

Regarding “ARR18 peptide (entire cytoplasmic domain of human L-selectin)”, in the test with calmodulin, the Ka came out at 204000 M⁻¹, the dissociation constant Kd was determined as 4.9 µM, the dH is -0.77 kcal/mol and the stoichiometry N was found to be 0.92. The substance further returned a Kd with IAEDANS-labeled CaM-K75C [1] of 2.1 µM. Also, the Kd with IAEDANS-labeled CaM-K75C [2] came out at 2.5 µM.
“calmodulin (from UniProt P0DP23 1-149) (natural protein)” showed a Kd in test [3] of 1.7 µM.

By Kd is commonly meant the equilibrium constant for the complex coming apart. Low readings indicate higher affinity, high ones lower affinity. The term stoichiometry N denotes a count of units in the complex or per binding partner.
